Assay results: the supplement of paper PMC9170038

system: K4 kissing-loop RNA reporter; assay: apparent KD of K4 kissing-loop reporter; higher = weaker reporter binding; settings: Eterna round: R107; input ligand: FMN 200 uM
Description: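 RNA-MaP round R107: designed RNA switches with theophylline, tryptophan, arginine or FMN aptamers are transcribed on-chip within common flanks. They are titrated with a labelled K4 kissing-loop RNA reporter in RNA-MaP buffer (100 mM Tris pH 7.5, 80 mM KCl, 4 mM MgCl2), without ligand or with the indicated ligand. Median apparent KD per design.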
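Further: bound reporter read as fluorescence of individual clusters on recovered sequencing chips by microscopy, with normalized cluster intensities fitted with a binding model.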

Sequence | apparent KD of K4 kissing-loop reporter [µM]
GCGUCACGUCGGGAUACCAGAGAAAUGGCAUUAGCCAAUGACGAGUGAUGUUCGUAGGCGCUCCCUUGGCAGCCCACCGGGAGGA [theeternabot_sameState_KL_Theo_B_21] | 0.351
GCCGUAGAUUGAAGGAGCGGUGAAUGCAGGUGAGUCCUUUAGAUGUUUAGUGAUGUUAAACACCAGGUAGGUCGCAAUCUACGGC | 0.235
GGUAGCUAGGCAGGAUAUAGCUAGUGGAGUGAUGUUCCACCAUACACGAGUGAUGUUCGUAACCUGCUAGAAGGGCCUAGCUACC | 0.114
GGCGGCCGCGCGCAAGCGCGGCCGGCCGAUACCAGCGCGACGGCGCGCCCUUGGCAGCGGCGCCGAGUGAUGUUCGGCCUGCCGG [#2 Same State - Theophylline A Attempt #16 (HarryS)] | 0.376
UUUUUUAGUUGAGUUAUACAUAGCGGACUAUAGGAUAUCUAGAAAUAGAGAAGGAUAAGAGUGAUGUUCUUAUUCAACUAUAGUG | 0.101
GGACAACUAUGUCCCAUACAAACAAGAGAUACCAGCCAUCAUAGAGGCCCUUGGCAGCUCAUAUAAUCCAGUGAUGUUGGAUUUC [Atgebeus] | 0.165
AAUGUGCAGGGAAGGAGCGUAGUCCAGUGAUGUUGGAGUUAAAUACCAGUGAUGUUGGUUAUACAGGUAGGUCGCCCUAAAGCGC [Exclusion Arginine B Gf 5] | 0.0735
GAACGAGUGAUGUUCGUUAUUAUGCAUUCCGAGGAUAUGGGAUUAGCCAGAAGGCGGAAUCAAUCUUCGAGUGAUGUUCGAAGAU [Same State FMN A GF 11] | 0.129
ACGCGCGAGACGGCCGCCACUAUACGUCGAGUGAUGUUCGAGCCAAGAUGUCGUUACGUUUAUAAUAGGACCGGGUCAAUGGAUU [theeternabot_sameState_KL_Trp_B_19] | 0.596
CGUGAGUGCCGACGGUCAUCGGUCCAUGCACGAGGACCGGUACGGCCGCCACUCGAGCGUGGCAGUGAUGUUGCCAGCGCACUAA [Oninvexece] | 0.114
CGGGAAUUAGGUAUCGUCGAAAGCAAGAACCGAGGACCGGUACGGCCGCCACUCGCACCAGUGAUGUUGGUACAUUUGGUAUCCG [theeternabot_sameState_KL_Trp_A_31] | 0.115
UGAUACCAGACGGCCGCCACUAGGACCGGGAGUGAUGUUCCGAAAAUUAAAUGCUCGGCCGCCACUAGGACCGGGUCUGGUAUCU [TrypBX 28 #DoubleAptamer #SwitchBubble] | 0.478
AAUUUAUUAACUGAUACCAGACUUAAUAAAUUGUAAAUUACUAGUGAUGUUAGUGAAUUUGUCCCUUGGCAGCAGUAUUUAUUAA [JR_ExcTheophyB_Sub009] | 0.123
AAAACUCGGUAGUGAUGUUAUUGAGUGAACAAGGAUAUCUAUGAUAAGAGAAGGUGUAAGUUAAGCGUAUUUCGGCCUGUACAAU [theeternabot_sameState_KL_FMN_A_34] | 0.115
AAAAUUAAGGCCGAAUUAACUUCUUGCAUACGAGGACCGGUACGGCCGCCACUCGAGUCAAGUGAUGUUUGACAAUCUAUUAUUA [JR_ExcTryptoA_Sub010] | 0.0812
UGUCAUUGGUCGGCCGCCACUAGAAGGUCAAAGACCAUAGAGUGAUGUUCUAAGACGAAAGUCACUAGGACCGGGACCGAUGACU [TrypBS 1 #SwitchBubble #K4Middle] | 0.744
AAGUGUGUGGCGGCCGCCACUAGAAUCCAGUGAUGUUGGAGUAAUCAAAUAAAUGAUAAUCAACAUAGGACCGGGCCAUAUAGAA [Same State - Tryptophan B (Freestyle 3)] | 0.345
UGUACCGAGUCAGGAUAUGGCGUCGAAAGACGAAUUCUAGUGAUGUUAGGGAUCUGCGAAAGCAGUCCAGAAGGGACUUGGUACU [FmnBS 26 U36] | 0.322
UAACUUGCAGUGAUGUUGCAAGAACUGGAUACCAGCAUGGAAACAUGCCCUUGGCAGCCAGAAGGUAUCCUCUGCAAGAGAUACA [Design1] | 0.318
GGAUAGGAAAGAGGAUAUGGGCUAGGCAAGAAUAACUUGUCUAGCAAAUCCAUGAGGAGUGAUGUUCCAGAAGGCUUUCCUAUCG [FmnBX 1 A9+U77] | 0.995
AAACAUUGGUCUGAUACCAGUUAGACCGAUAGGUCAAAACUGGAGUGAUGUUCCUAAAAUAACCCUUGGCAGCAGACCGAUGAAA [MAT - Same State Theophlline B - Mod of Eli - D4] | 3.64

Sequence | apparent KD of K4 kissing-loop reporter [µM]
CGUUUAUAGCAGGAUACCAGUACCCAUAAAGUACGUUAAUAGUAGAGUGAUGUUCUAAAGUACCCUUGGCAGCUUCCCGUGACCG [ExTheophylB.V] | 0.106
CGAAGACUUAUGGAUACCAGCCUAGCAUCAGGUGGUUCAGAGGCAUGCAGUGAUGUUGCAGGCCCUUGGCAGCCAUGGUACUAGA [Xelebi] | 0.076
AAGUGUGUGGCGGCCGCCACUAGUAUCCAGUGAUGUUGGAGAUAUCACGUAAGUGAUAUCCAACAUAGGACCGGGCCAUAUAGAA [Same State - Tryptophan B (Freestyle 17)] | 0.145
GCGCGCGGCGGAGGAUAUAGCAGGUGAUCCAAGAAAGUGAGUGAUGUUUAUGGAGAUGAUGAUAUGUUAGAAGGCCGCCGCGCGC [abcdefghijklmnopqrstu] | 0.803
CGUUUAUAGCAGGAUACCAGUACCCAUAAAGUACGUUAAUAGUAGAGUGAUGUUCUAAAGUACCCUUGGCAGCUUCGAGUGAGUG [ExTheophylB.R] | 0.0725
GGACCUCAGUGAUGUUGAGGUAACGCUGAUACCAGUGACUUAAUUCGCCCUUGGCAGCAGUCCACCGAGGUAUCUGAUUAGGUCU [Default title] | 0.133
AAAAUAAACUAGUGAUGUUGGUGUCCAGAUACCAGCGACGAAAGUCGCCCUUGGCAGCUGUGGACGUACAAAAUAAGUACGUCCU [MatMod 21 - Jieux - Same State - Theophylline A] | 0.319
AAAAUUGCGGUCGAAAGAACUUCUUGCAUACGAGGACCGGUACGGCCGCCACUCGAGUCAAGUGAUGUUUGAUAAUCUAUUAUUA [JR_ExcTryptoA_Sub012] | 0.151
UUUAUUUUCUGAGGAUAUCGUUUUACUGAAGUGAUGUUUCAGUAUUUUCAUAUUAUAUAUAAUUUUCGAGAAGGCAGUAUUAUUA [JR_Nu_SSFMNB_Sub027] | 0.0835
UAUUUAGUGACGGCCGCCACUAUUGUGAUUUAAUUGUUUGAGUGAUGUUUUGAUGUUUGAUUUUGUAGGACCGGGUUAUGUGUUA [tyttmullin] | 1.02
UGGAGUUGACGAAAAGUCAACUCCAGAGAAGGAGCGGACGAAAGUCCAGGUAGGUCGCUCACUACCAGUGAUGUUGGUACUUAAA | 0.0684
CAUAGGAAACUAUGUUUCUCUCUUACUGAAGGAGCGCGUGAAAACGCAGGUAGGUCGCAGAAUUUGAGAGUGAUGUUCUCAUUAA [Ex Arginine A K4 14] | 0.119
AAUAAAAUCACGGCCGCCACUGAUUAUUUUAUUAGGAGUGAUGUUCCUAUGACAGUAUGCCUUAACAGGACCGGGUGAAUAUUUA [#19 K4 Tryptophan B Exclusion] | 0.122
GCGUAGGAAGAAGGAUAUCACAGGAUGCCACGUUAGUGAUGUUAAUUUGGUUCAGCGCGAUUCUGAUGAGAAGGUCUUUUAUGAU [theeternabot_sameState_KL_FMN_B_47] | 0.22
GUGGUGGUGGCGGCCGCCACUGAAGAUAAUGAGUGAUGUUCAAGUGAUGUUAAUAAGAACAGUAUCAGGACCGGGCCACCACCAC [Default title] | 0.0375
CUCACGCUCACAGAUACCAGUGGUGAUCCGGAUUGUAGUGAUGUUAAUUCCGCCAUCAUACACCCUUGGCAGCUGGCGUCACCUU [theeternabot_sameState_KL_Theo_B_31] | 0.799
GGUGUGCCAAGUGAUGUUUGGCGUUCUCACCGAGGACCGGUACGGCCGCCACUCGUUAACUGACCAAGUAUCUUUACCUCGGAGA [theeternabot_sameState_KL_Trp_A_8] | 0.168
CUGUACAUCUCGGCCGCCACUGACCUAAGUGAUGUUAGGAAUGAAACCUAGUGAUGUUAGCAAACCAGGACCGGGAGGUGUGCAG [KL-SSTryp-B4 #Double Kiss] | 0.11
GUCUCGAGUGAUGUUCGGGUCGUUUGGGAAGGAGCGCCCGGAAGGGCAGGUAGGUCGCCCGGACCGCGCGGGCAACCGCGCGGCC [#2 Same State - Arginine A Attempt #12 (HarryS)] | 0.228
UGACUGGAUGGAAGGAGCGCUAAACUCCUAGUGAUGUUAGGGACACGAGACAAAGUCUCGAAGCAGGUAGGUCGCCAUCUAGUCU [FiskerMod 13 - Jieux - Same State - Arginine B] | 0.219
ACGGAUACGCGAGAUACCAGAGGCAUUCGCCAGCGACCAUAAUGUCCCGAGAGUGAUGUUCUCCCUUGGCAGCUCAUGGUUAAUU [theeternabot_exclusion_KL_Theo_B_2] | 0.484

same assay, conditions: Eterna round: R107; input ligand: arginine 13.2 mM

Sequence | apparent KD of K4 kissing-loop reporter [µM]
GCGUCACGUCGGGAUACCAGAGAAAUGGCAUUAGCCAAUGACGAGUGAUGUUCGUAGGCGCUCCCUUGGCAGCCCACCGGGAGGA [theeternabot_sameState_KL_Theo_B_21] | 0.218
GCCGUAGAUUGAAGGAGCGGUGAAUGCAGGUGAGUCCUUUAGAUGUUUAGUGAUGUUAAACACCAGGUAGGUCGCAAUCUACGGC | 0.178
GGUAGCUAGGCAGGAUAUAGCUAGUGGAGUGAUGUUCCACCAUACACGAGUGAUGUUCGUAACCUGCUAGAAGGGCCUAGCUACC | 0.125
GGCGGCCGCGCGCAAGCGCGGCCGGCCGAUACCAGCGCGACGGCGCGCCCUUGGCAGCGGCGCCGAGUGAUGUUCGGCCUGCCGG [#2 Same State - Theophylline A Attempt #16 (HarryS)] | 0.447
UUUUUUAGUUGAGUUAUACAUAGCGGACUAUAGGAUAUCUAGAAAUAGAGAAGGAUAAGAGUGAUGUUCUUAUUCAACUAUAGUG | 0.0874
GGACAACUAUGUCCCAUACAAACAAGAGAUACCAGCCAUCAUAGAGGCCCUUGGCAGCUCAUAUAAUCCAGUGAUGUUGGAUUUC [Atgebeus] | 0.215
AAUGUGCAGGGAAGGAGCGUAGUCCAGUGAUGUUGGAGUUAAAUACCAGUGAUGUUGGUUAUACAGGUAGGUCGCCCUAAAGCGC [Exclusion Arginine B Gf 5] | 0.0677
GAACGAGUGAUGUUCGUUAUUAUGCAUUCCGAGGAUAUGGGAUUAGCCAGAAGGCGGAAUCAAUCUUCGAGUGAUGUUCGAAGAU [Same State FMN A GF 11] | 0.138
ACGCGCGAGACGGCCGCCACUAUACGUCGAGUGAUGUUCGAGCCAAGAUGUCGUUACGUUUAUAAUAGGACCGGGUCAAUGGAUU [theeternabot_sameState_KL_Trp_B_19] | 0.512
CGUGAGUGCCGACGGUCAUCGGUCCAUGCACGAGGACCGGUACGGCCGCCACUCGAGCGUGGCAGUGAUGUUGCCAGCGCACUAA [Oninvexece] | 0.0895
